Values of other authors as cited in PMC10219982.

Target: Follistatin (UniProt P19883)
Experiment: SPR

Chain of UniProt P19883 (P19883 30-344): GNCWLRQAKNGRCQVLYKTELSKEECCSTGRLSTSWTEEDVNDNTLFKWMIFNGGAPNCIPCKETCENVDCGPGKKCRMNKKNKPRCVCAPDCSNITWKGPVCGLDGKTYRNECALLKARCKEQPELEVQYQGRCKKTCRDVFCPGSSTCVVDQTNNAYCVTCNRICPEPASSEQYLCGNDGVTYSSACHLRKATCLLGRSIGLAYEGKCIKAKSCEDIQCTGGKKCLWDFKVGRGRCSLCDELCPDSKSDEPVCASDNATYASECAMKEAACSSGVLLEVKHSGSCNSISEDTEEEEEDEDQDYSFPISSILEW

Kd: 22.5 nM
Substance: BMP4 (from UniProt P12644)
